T1: human recombinant FcgammaR receptor CD32aR (human, UniProt P12318 34-217, limits assumed)
T1 sequence (looked up): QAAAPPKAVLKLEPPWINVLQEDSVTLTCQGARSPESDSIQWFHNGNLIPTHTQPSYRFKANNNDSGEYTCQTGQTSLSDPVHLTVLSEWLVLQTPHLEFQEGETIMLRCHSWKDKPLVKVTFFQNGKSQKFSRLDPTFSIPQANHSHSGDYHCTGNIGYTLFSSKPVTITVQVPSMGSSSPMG

T2: recombinant human sFas receptor (human, UniProt P25445 17-173, limits assumed)
T2 construct: Bought reagent
T2 sequence (looked up): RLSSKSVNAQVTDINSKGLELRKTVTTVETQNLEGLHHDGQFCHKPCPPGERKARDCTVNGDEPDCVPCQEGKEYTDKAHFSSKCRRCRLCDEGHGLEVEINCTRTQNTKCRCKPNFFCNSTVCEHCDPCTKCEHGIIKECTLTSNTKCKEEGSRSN


Columns and labels:
recombinant human HER3 = target: T3, recombinant human HER3 (human, UniProt P21860 20-643); experiment: SPR (ProteOn), Mab captured via anti-human Fc, HER3 analyte
T3 construct: Bought reagent
Description: HER3 affinity determination in Mabs was carried out as follows. The screening of Mabs for binding to HER3 antigen occurred in two steps: an indirect capture of Mabs onto the anti-human Fc-specific polyclonal antibody surface, followed by the injection of five concentrations of HER3. The anti-human Fc surface was prepared on a GLC sensorchip by amine coupling. GLC sensorchip surface was activated by a 1:10 dilution of the standard BioRad sNHS/EDC solutions injected for 140s at 100 pt/min in the analyte (horizontal) direction. Immediately after the activation, 25 microg/mL solution of anti-human Fc in 10 mM NaOAc pH 4.5 was injected in the ligand (vertical) direction at a flow rate of 25 microL/min for 240s until approximately 3000 resonance units (RUs) were immobilized. Remaining active groups were quenched by a 140s injection of 1M ethanolamine at 100 μL/min also in the analyte direction. Mabs for analysis were indirectly captured onto the anti-Fc surface by injecting 20 microg/mL solutions in the ligand (vertical) direction at a flow rate of 25 microL/min for 240s. HER3 was subsequently injected in the analyte (horizontal) direction. Firstly, two buffer injections for 30s at 100 microL/min in the analyte (horizontal) direction were used to stabilize the baseline. […] Sensorgrams were aligned and double-referenced using the buffer blank injection and interspots, and the resulting sensorgrams were analyzed using ProteOn Manager software v3.1. The double-referenced sensorgrams were fit to the Langmuir binding model.

human recombinant FcRn = target: T4, human recombinant FcRn (human, UniProt P55899 24-297; P61769 21-119, limits assumed); experiment: SPR (ProteOn), FcRn immobilized, Mab analyte, pH 5.8
T4 construct: also called neonatal receptor
Description: FcRn affinity determination was carried out as follows. FcRn surface was generated using a GLC sensorchip activated by a 1:10 dilution of the standard BioRad sNHS/EDC solutions injected for 140s at 100 μL/min in the ligand (vertical) direction. Immediately after the activation, 10 microg/mL solution of FcRn in 10 mM NaOAc pH 4.5 was injected in the ligand (vertical) direction at a flow rate of 25 microL/min for 120s until approximately 2000 resonance units (RUs) were immobilized. Remaining active groups were quenched by a 140s injection of 1M ethanolamine at 30 μL/min also in the ligand direction. The running buffer used on the FcRn surface was PBST pH 5.8. The screening of the Mabs for binding to FcRn was performed by injection of purified Mabs in the analyte (horizontal) direction. Firstly, two buffer injections for 30s at 100 microL/min in the analyte (horizontal) direction were used to stabilize the baseline. Five concentrations of a three-fold dilution series of each Mab starting at 100 nM with a blank buffer control were simultaneously injected at 50 microL/min for 120 s with a 10 minute dissociation phase, resulting in a set of binding sensorgrams with a buffer reference. […] Sensorgrams were aligned and double-referenced using the buffer blank injection and interspots, and the resulting sensorgrams were analyzed using ProteOn Manager software v3.1. The double-referenced sensorgrams were fit to the Langmuir binding model.

[1] = target: human recombinant FcgammaR receptor CD16aV (human, UniProt P08637 17-208, limits assumed); experiment: SPR (ProteOn), Mab captured via anti-human Fc, FcgammaR analyte
human recombinant FcgammaR receptor CD16aV, sequence (P08637 17-208 F176V limits assumed): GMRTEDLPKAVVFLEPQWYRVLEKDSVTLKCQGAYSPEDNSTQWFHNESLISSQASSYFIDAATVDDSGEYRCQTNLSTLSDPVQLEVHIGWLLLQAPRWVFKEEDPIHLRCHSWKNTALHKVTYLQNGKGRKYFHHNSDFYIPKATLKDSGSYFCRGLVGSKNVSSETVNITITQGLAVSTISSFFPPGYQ
Description: (§1) Goat polyclonal anti-human Fc antibody was purchased from Jackson Immuno Research Laboratories Inc. (West Grove, Pa.). […] Human recombinant FcγR receptors: CD16aV, CD32bF, CD32aR, and CD32aH were expressed as constructs containing a His10-tag at the C-terminus and purified by Ni-affinity chromatography followed by His-tag removal and SEC purification.
(§2) FcγR affinity determination was carried out as follows. The screening of Mabs for binding to various FcγR receptors occurred in two steps: an indirect capture of Mab samples onto the anti-human Fc-specific polyclonal antibody surface, followed by the injection of five concentrations of each of FcγR receptors. The anti-human Fc surface was prepared on a GLC sensorchip by amine coupling. GLC sensorchip surface was activated by a 1:10 dilution of the standard BioRad sNHS/EDC solutions injected for 140s at 100 μL/min in the analyte (horizontal) direction. Immediately after the activation, 25 microg/mL solution of anti-human Fc in 10 mM NaOAc pH 4.5 was injected in the analyte direction at a flow rate of 25 microL/min for 240s until approximately 4500 or 2500 resonance units (RUs) were immobilized. Remaining active groups were quenched by a 300s injection of 1M ethanolamine at 30 μL/min also in the analyte direction. Mabs for analysis were indirectly captured onto the anti-human Fc surface by injecting 10 microg/ml solutions in the ligand (vertical) direction at a flow rate of 25 microL/min for 240s. Each of the FcγR receptors was subsequently injected in the analyte (horizontal) direction. Firstly, two buffer injections for 30s at 100 microL/min in the analyte (horizontal) direction were used to stabilize the baseline. Five concentrations of a three-fold dilution series of each of the four FcγR receptors starting at 10 μM with a blank buffer control were then simultaneously injected at 50 microL/min for 120 s with a 3 minute dissociation phase, resulting in a set of binding sensorgrams with a buffer reference. […] Sensorgrams were aligned and double-referenced using the buffer blank injection and interspots, and the resulting sensorgrams were analyzed using ProteOn Manager software v3.1.

[2] = target: T1, human recombinant FcgammaR receptor …; experiment: as above
Description: as §1, §2

[3] = target: T2, recombinant human sFas receptor; experiment: SPR (Biacore T200), Fas immobilized, Fab analyte
Description: Fas affinity determination was carried out as follows. Fas was diluted in 10 mM acetate buffer pH 5.5 and directly immobilized via amine coupling onto a CMS Series S sensor chip. […] The reference flow cell was left empty (ethanolamine blocked) to use as a blank control. Fabs were injected over both the ethanolamine-blocked reference surface and the Fas surface for kinetic analysis using single cycle kinetics. […] Fas surfaces were regenerated using 2 cycles of 10 mM glycine pH 1.5 for 120 s at 30 pt/min to prepare the surfaces for the next injection cycle. At least two mock-buffer injections were performed for each analyte injection to be used for referencing. The resulting single cycle kinetics sensorgrams were analyzed using Biacore T200 BiaEvaluation software version 3.0 and fit to the 1:1 binding model.

recombinant human IL-17A = target: T5, recombinant human IL-17A (human, UniProt Q16552 20-155, limits assumed); experiment: SPR (ProteOn), IL-17A immobilized, Mab analyte
T5 construct: Bought reagent
T5 sequence (Q16552 20-155 limits assumed): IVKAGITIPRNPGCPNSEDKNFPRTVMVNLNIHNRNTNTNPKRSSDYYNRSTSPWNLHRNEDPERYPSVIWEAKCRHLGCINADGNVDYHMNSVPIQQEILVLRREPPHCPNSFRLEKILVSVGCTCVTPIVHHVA
Description: IL-17 affinity determination was carried out as follows. The IL-17A surface was generated using a GLC sensorchip activated by a 1:10 dilution of the standard BioRad sNHS/EDC solutions injected for 140s at 100 pt/min in the ligand (vertical) direction. Immediately after the activation, 1 to 4 microg/mL solution of IL-17A in 10 mM NaOAc pH 4.5 was injected in the ligand (vertical) direction at a flow rate of 25 or 100 microL/min until approximately 75-200 resonance units (RUs) were immobilized. Remaining active groups were quenched by a 140s injection of 1M ethanolamine at 100 μL/min also in the ligand direction. […] Firstly, two buffer injections for 30s at 100 microL/min in the analyte (horizontal) direction were used to stabilize the baseline. […] Sensorgrams were aligned and double-referenced using the buffer blank injection and interspots, and the resulting sensorgrams were analyzed using ProteOn Manager software v3.1. The double-referenced sensorgrams were fit to the Langmuir binding model.

| Kd (recombinant human HER3) [nM] | Kd (human recombinant FcRn) [nM] | Kd [1] [nM] | Kd [2] [nM] | Kd [3] [nM] | Kd (recombinant human IL-17A) [nM] | Binder |
| --- | --- | --- | --- | --- | --- | --- |
| 56 | – | – | – | – | – | H3 designed Vlambda-Ckappa chimeric Mab, design 26 (E83V_D85T) (antibody, human IgG1, kappa, name in Kabat numbering, IgG1 Mab format) heavy: not shown light: QSALTQPASVSGSPGQSITISCTGTSSDVGGYNFVSWYQQHPGKAPKLMIYDVSDRPSGVSDRFSGSKSGNTASLIISGLQADDVATYYCSSYGSSSTHVIFGGGTKVTVLRTVAAPSVFIFPPSDEQLKSGTASVVCLLNNFYPREAKVQWKVDNALQSGNSQESVTEQDSKDSTYSLSSTLTLSKADYEKHKVYACEVTHQGLSSPVTKSFNRGEC |
| 64 | 86.1 | 1100 | 4900 | – | – | H3 designed Vlambda-Ckappa chimeric Mab, design 29 (E83V_D85T_T105E_V106I) (antibody, human IgG1, kappa, name in Kabat numbering, IgG1 Mab format) heavy: not shown light: QSALTQPASVSGSPGQSITISCTGTSSDVGGYNFVSWYQQHPGKAPKLMIYDVSDRPSGVSDRFSGSKSGNTASLIISGLQADDVATYYCSSYGSSSTHVIFGGGTKVEILRTVAAPSVFIFPPSDEQLKSGTASVVCLLNNFYPREAKVQWKVDNALQSGNSQESVTEQDSKDSTYSLSSTLTLSKADYEKHKVYACEVTHQGLSSPVTKSFNRGEC |
| 67 | – | – | – | – | – | H3 designed Vlambda-Ckappa chimeric Mab, design 32 (E83I_D85T) (antibody, human IgG1, kappa, name in Kabat numbering, IgG1 Mab format) heavy: not shown light: QSALTQPASVSGSPGQSITISCTGTSSDVGGYNFVSWYQQHPGKAPKLMIYDVSDRPSGVSDRFSGSKSGNTASLIISGLQADDIATYYCSSYGSSSTHVIFGGGTKVTVLRTVAAPSVFIFPPSDEQLKSGTASVVCLLNNFYPREAKVQWKVDNALQSGNSQESVTEQDSKDSTYSLSSTLTLSKADYEKHKVYACEVTHQGLSSPVTKSFNRGEC |
| 60 | – | – | – | – | – | H3 designed Vlambda-Ckappa chimeric Mab, design 34 (E83I_D85T_T105E_V106I) (antibody, human IgG1, kappa, name in Kabat numbering, IgG1 Mab format) heavy: not shown light: QSALTQPASVSGSPGQSITISCTGTSSDVGGYNFVSWYQQHPGKAPKLMIYDVSDRPSGVSDRFSGSKSGNTASLIISGLQADDIATYYCSSYGSSSTHVIFGGGTKVEILRTVAAPSVFIFPPSDEQLKSGTASVVCLLNNFYPREAKVQWKVDNALQSGNSQESVTEQDSKDSTYSLSSTLTLSKADYEKHKVYACEVTHQGLSSPVTKSFNRGEC |
| 61 | 96.7 | 1400 | 3100 | – | – | H3 designed Vlambda-Ckappa chimeric Mab, design 39 (E83A_D85T_T105E_V106I) (antibody, human IgG1, kappa, name in Kabat numbering, IgG1 Mab format) heavy: not shown light: QSALTQPASVSGSPGQSITISCTGTSSDVGGYNFVSWYQQHPGKAPKLMIYDVSDRPSGVSDRFSGSKSGNTASLIISGLQADDAATYYCSSYGSSSTHVIFGGGTKVEILRTVAAPSVFIFPPSDEQLKSGTASVVCLLNNFYPREAKVQWKVDNALQSGNSQESVTEQDSKDSTYSLSSTLTLSKADYEKHKVYACEVTHQGLSSPVTKSFNRGEC |
| 66 | – | – | – | – | – | H3 designed Vlambda-Ckappa chimeric Mab, design 18 (E83F_D85T_T105E) (antibody, human IgG1, kappa, name in Kabat numbering, V domains shown, IgG1 Mab format) VH: QVQLQESGGGLVKPGGSLRLSCAASGFTFSSYWMSWVRQAPGKGLEWVANINRDGSASYYVDSVKGRFTISRDDAKNSLYLQMNSLRAEDTAVYYCARDRGVGYFDLWGRGTLVTVSS VL: QSALTQPASVSGSPGQSITISCTGTSSDVGGYNFVSWYQQHPGKAPKLMIYDVSDRPSGVSDRFSGSKSGNTASLIISGLQADDFATYYCSSYGSSSTHVIFGGGTKVEVLR |
| – | – | – | – | 0.0512 | – | EP6b_B01 Vlambda-Ckappa chimeric Fab (Fab, V domains shown, Parent chimeric Fab without stabilizing substitutions; also called chimera; VL-CK chimeric Fab) VH: QLQLQESGPGLVKPSETLSLTCTVSGASISANSYYGVWVRQSPGKGLEWVGSIAYRGNSNSGSTYYNPSLKSRATVSVDSSKNQVSLRLTSVTAADTALYYCARRQLLDDGTGYQWAAFDVWGQGTMVTVSS VL: QSVLTQPPSVSEAPRQTVTISCSGNSSNIGRYPVNWYQQLPGKAPKLLIYSDNLRFSGVPDRFSGSKSGTTASLAIRDLLSEDEADYYCSTWDDTLEGWVFGGGTKVTVLR |
| – | – | – | – | 0.0449 | – | EP6b_B01 designed Vlambda-Ckappa chimeric Fab, design 18 (E83F_D85T_T105E) (Fab, name in Kabat numbering, V domains shown) VH: QLQLQESGPGLVKPSETLSLTCTVSGASISANSYYGVWVRQSPGKGLEWVGSIAYRGNSNSGSTYYNPSLKSRATVSVDSSKNQVSLRLTSVTAADTALYYCARRQLLDDGTGYQWAAFDVWGQGTMVTVSS VL: QSVLTQPPSVSEAPRQTVTISCSGNSSNIGRYPVNWYQQLPGKAPKLLIYSDNLRFSGVPDRFSGSKSGTTASLAIRDLLSEDFATYYCSTWDDTLEGWVFGGGTKVEVLR |
| 85 | 48.6 | 1100 | 3400 | – | – | H3 wild-type lambda Mab (antibody, human IgG1, lambda, IgG1 Mab format; also called WT) heavy: not shown light: QSALTQPASVSGSPGQSITISCTGTSSDVGGYNFVSWYQQHPGKAPKLMIYDVSDRPSGVSDRFSGSKSGNTASLIISGLQADDEADYYCSSYGSSSTHVIFGGGTKVTVLGQPKAAPSVTLFPPSSEELQANKATLVCLISDFYPGAVTVAWKADSSPVKAGVETTTPSKQSNNKYAASSYLSLTPEQWKSHRSYSCQVTHEGSTVEKTVAPTECS |
| – | 14.2 | 1200 | 2400 | – | 0.027 | CAT-2200 wild-type lambda Mab (antibody, human IgG1, lambda, IgG1 Mab format; also called WT) heavy: not shown light: NFMLTQPHSVSESPGKTVTISCTRSSGSLANYYVQWYQQRPGSSPTIVIFANNQRPSGVPDRFSGSIDSSSNSASLTISGLKTEDEADYYCQTYDPYSVVFGGGTKLTVLGQPKAAPSVTLFPPSSEELQANKATLVCLISDFYPGAVTVAWKADSSPVKAGVETTTPSKQSNNKYAASSYLSLTPEQWKSHRSYSCQVTHEGSTVEKTVAPTECS |

Source: patent US20200308270A1 (Zymeworks, published 2020)
